# Measurements from article PMC6602471.
# Biological target: T1, ETS1 (Homo sapiens) (UniProt P14921)
# T1 sequence (P14921 whole entry, looked up): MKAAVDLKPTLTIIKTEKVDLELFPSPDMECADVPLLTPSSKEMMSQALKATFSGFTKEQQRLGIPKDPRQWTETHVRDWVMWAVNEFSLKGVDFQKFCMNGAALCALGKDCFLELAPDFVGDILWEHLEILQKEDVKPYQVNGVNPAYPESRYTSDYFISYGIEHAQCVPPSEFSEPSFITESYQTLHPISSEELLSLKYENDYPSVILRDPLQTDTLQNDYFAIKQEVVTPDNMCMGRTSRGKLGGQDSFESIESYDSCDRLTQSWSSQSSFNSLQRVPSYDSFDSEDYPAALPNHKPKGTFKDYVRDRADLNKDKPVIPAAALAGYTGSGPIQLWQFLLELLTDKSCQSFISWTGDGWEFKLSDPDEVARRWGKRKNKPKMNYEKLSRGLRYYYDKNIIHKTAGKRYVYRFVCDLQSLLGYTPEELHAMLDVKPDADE
# Assay: PBM
# Details: Custom protein-binding microarray; buffer, salt, pH and temperature not given in the material
row,Sequence,binding signal
1,CGGAAGTGTCGTAAACGTCGGATATCCGCTTCTTCTGTCTTGATTCGCTTGACGCTGCTG (double strand) [seq01_p29 G>C],10.1 log signal
2,GCTGCTGCGGTGCATACCCCACCGGATGTGACCCCGGTCTTGATTCGCTTGACGCTGCTG (double strand) [seq02_wt0],10.2 log signal
3,CGGAAGTGTCGTAAACGTCGGATATCCGATTCTTCTGTCTTGATTCGCTTGACGCTGCTG (double strand) [seq01_p29 G>A],8.64 log signal
4,CGGAAGTGTCGTAAACGTCGGATACCCGGTTCTTCTGTCTTGATTCGCTTGACGCTGCTG (double strand) [seq01_p25 T>C],8.31 log signal
5,GGAAAAAGGCCCAGGGTAACACCGGAAGTGGGCTTAGTCTTGATTCGCTTGACGCTGCTG (double strand) [seq04_wt0],12 log signal
6,CGGAAGTGTCGTAAACGTCGGATATACGGTTCTTCTGTCTTGATTCGCTTGACGCTGCTG (double strand) [seq01_p26 C>A],9.21 log signal
7,CGGAAGTGTCGTAAACGTCGGTTATCCGGTTCTTCTGTCTTGATTCGCTTGACGCTGCTG (double strand) [seq01_p22 A>T],9.21 log signal
8,CGGAAGTGTCGTAAACGTCGGATATGCGGTTCTTCTGTCTTGATTCGCTTGACGCTGCTG (double strand) [seq01_p26 C>G],8.38 log signal
9,CGGAAGTGTCGTAAACGTCGGATATCCGTTTCTTCTGTCTTGATTCGCTTGACGCTGCTG (double strand) [seq01_p29 G>T],9.45 log signal
10,CGGAAGTGTCGTAAACGTCGGATATCAGGTTCTTCTGTCTTGATTCGCTTGACGCTGCTG (double strand) [seq01_p27 C>A],8.51 log signal
11,CGGAAGTGTCGTAAACGTCGGATAACCGGTTCTTCTGTCTTGATTCGCTTGACGCTGCTG (double strand) [seq01_p25 T>A],8.34 log signal
12,CGGAAGTGTCGTAAACGTCGGACATCCGGTTCTTCTGTCTTGATTCGCTTGACGCTGCTG (double strand) [seq01_p23 T>C],12.6 log signal
13,CGGAAGTGTCGTAAACGTCGGGTATCCGGTTCTTCTGTCTTGATTCGCTTGACGCTGCTG (double strand) [seq01_p22 A>G],10.5 log signal
14,CGGAAGTGTCGTAAACGTCGGATATCCGGATCTTCTGTCTTGATTCGCTTGACGCTGCTG (double strand) [seq01_p30 T>A],9.94 log signal
15,CGGAAGTGTCGTAAACGTCGGATATCCGGGTCTTCTGTCTTGATTCGCTTGACGCTGCTG (double strand) [seq01_p30 T>G],10.2 log signal
16,CGGAAGTGTCGTAAACGTCGGATATCCCGTTCTTCTGTCTTGATTCGCTTGACGCTGCTG (double strand) [seq01_p28 G>C],8.7 log signal
17,CGGAAGTGTCGTAAACGTCGGATATCTGGTTCTTCTGTCTTGATTCGCTTGACGCTGCTG (double strand) [seq01_p27 C>T],8.37 log signal
18,CGGAAGTGTCGTAAACGTCGGATTTCCGGTTCTTCTGTCTTGATTCGCTTGACGCTGCTG (double strand) [seq01_p24 A>T],12.5 log signal
19,CGGAAGTGTCGTAAACGTCGGAGATCCGGTTCTTCTGTCTTGATTCGCTTGACGCTGCTG (double strand) [seq01_p23 T>G],8.83 log signal
20,CGGAAGTGTCGTAAACGTCGGATATTCGGTTCTTCTGTCTTGATTCGCTTGACGCTGCTG (double strand) [seq01_p26 C>T],8.55 log signal
21,CGGAAGTGTCGTAAACGTCGGAAATCCGGTTCTTCTGTCTTGATTCGCTTGACGCTGCTG (double strand) [seq01_p23 T>A],9.71 log signal
22,CGGAAGTGTCGTAAACGTCGGATGTCCGGTTCTTCTGTCTTGATTCGCTTGACGCTGCTG (double strand) [seq01_p24 A>G],9.65 log signal
23,CGGAAGTGTCGTAAACGTCGGATCTCCGGTTCTTCTGTCTTGATTCGCTTGACGCTGCTG (double strand) [seq01_p24 A>C],8.47 log signal
24,CGGAAGTGTCGTAAACGTCGGATATCGGGTTCTTCTGTCTTGATTCGCTTGACGCTGCTG (double strand) [seq01_p27 C>G],8.65 log signal
25,CGGAAGTGTCGTAAACGTCGGATATCCGGTTCTTCTGTCTTGATTCGCTTGACGCTGCTG (double strand) [seq01_wt0],11.9 log signal
26,CGGAAGTGTCGTAAACGTCGGATATCCTGTTCTTCTGTCTTGATTCGCTTGACGCTGCTG (double strand) [seq01_p28 G>T],10.1 log signal
27,CGGAAGTGTCGTAAACGTCGGCTATCCGGTTCTTCTGTCTTGATTCGCTTGACGCTGCTG (double strand) [seq01_p22 A>C],8.79 log signal
28,CGGAAGTGTCGTAAACGTCGGATATCCAGTTCTTCTGTCTTGATTCGCTTGACGCTGCTG (double strand) [seq01_p28 G>A],8.64 log signal
29,CGGAAGTGTCGTAAACGTCGGATATCCGGCTCTTCTGTCTTGATTCGCTTGACGCTGCTG (double strand) [seq01_p30 T>C],10.7 log signal
30,CGGAAGTGTCGTAAACGTCGGATAGCCGGTTCTTCTGTCTTGATTCGCTTGACGCTGCTG (double strand) [seq01_p25 T>G],8.18 log signal
